Source: PMC12148503, “Molecular Basis of Interchain Disulfide Bond Formation in BMP-9 and BMP-10” (Journal of molecular biology, 2025)

B1: Pro-(X)-BMP-9 [human] / itself (parent)
chain: KPLQSWGRGSAGGNAHSPLGVPGGGLPEHTFNLKMFLENVKVDFLRSLNLSGVPSQDKTRVEPPQYMIDLYNRYTSDKSTTPASNIVRSFSMEDAISITATEDFPFQKHILLFNISIPRHEQITRAELRLYVSCQNHVDPSHDLKGSVVIYDVLDGTDAWDSATETKTFLVSQDIQDEGWETLEVSSAVKRWVRSDSTKSKNKLEVTVESHRKGCDTLDISVPPGSRNLPFFVVFSNDHSSGTKETRLELREMISHEQESVLKKLSKDGSTEAGESSHEEDTDGHVAAGSTLAIEGRSSGAGSHCQKTSLRVNFEDIGWDSWIIAPKEYEAYECKGGCFFPLADDVTPTKHAIVQTLVHLKFPTKVGKACCVPTKLSPISVLYKDDMGVPTLKYHYEGMSVAECGCR

Variants of: B1
Test: SDS-PAGE densitometry
Conditions: with itself; IMAC column purified Pro-BMP-9

screen value | Variant
1.29 | KPLQSWGRGSAGGNAHSPLGVPGGGLPEHTFNLKMFLENVKVDFLRSLNLSGVPSQDKTRVEPPQYMIDLYNRYTSDKSTTPASNIVRSFSMEDAISITATEDFPFQKHILLFNISIPRHEQITRAELRLYVSCQNHVDPSHDLKGSVVIYDVLDGTDAWDSATETKTFLVSQDIQDEGWETLEVSSAVKRWVRSDSTKSKNKLEVTVESHRKGCDTLDISVPPGSRNLPFFVVFSNDHSSGTKETRLELREMISHEQESVLKKLSKDGSTEAGESSHEEDTDGHVAAGSTLAIEGRSSGAGSHCQKTSLRVNFEDIGWDSWIIAPKEYEAYECKGGCFFPLADDVTPTKHAIVQTLVHLKFPTKVSKACCVPTKLSPISVLYKDDMGVPTLKYHYEGMSVAECGCR [chain 1 G367S]
0.7 | KPLQSWGRGSAGGNAHSPLGVPGGGLPEHTFNLKMFLENVKVDFLRSLNLSGVPSQDKTRVEPPQYMIDLYNRYTSDKSTTPASNIVRSFSMEDAISITATEDFPFQKHILLFNISIPRHEQITRAELRLYVSCQNHVDPSHDLKGSVVIYDVLDGTDAWDSATETKTFLVSQDIQDEGWETLEVSSAVKRWVRSDSTKSKNKLEVTVESHRKGCDTLDISVPPGSRNLPFFVVFSNDHSSGTKETRLELREMISHEQESVLKKLSKDGSTEAGESSHEEDTDGHVAAGSTLAIEGRSSGAGSHCQKTSLRVNFEDIGWDSWIIAPKEYEAYECRGGCFFPLADDVTPTKHAIVQTLVHLKFPTKVGKACCVPTKLSPISVLYKDDMGVPTLKYHYEGMSVAECGCR [chain 1 K335R]
3.24 | KPLQSWGRGSAGGNAHSPLGVPGGGLPEHTFNLKMFLENVKVDFLRSLNLSGVPSQDKTRVEPPQYMIDLYNRYTSDKSTTPASNIVRSFSMEDAISITATEDFPFQKHILLFNISIPRHEQITRAELRLYVSCQNHVDPSHDLKGSVVIYDVLDGTDAWDSATETKTFLVSQDIQDEGWETLEVSSAVKRWVRSDSTKSKNKLEVTVESHRKGCDTLDISVPPGSRNLPFFVVFSNDHSSGTKETRLELREMISHEQESVLKKLSKDGSTEAGESSHEEDTDGHVAAGSTLAIEGRSSGAGSHCQKTSLRVNFEDIGWDSWIIAPKEYEAYECRGGCFFPLADDVTPTKHAIVQTLVHLKFPTKVSKACCVPTKLSPISVLYKDDMGVPTLKYHYEGMSVAECGCR [chain 1 K335R G367S]
